From patent US20100316665A1

T1: OmpC porin purified from Salmonella typhi (Salmonella enterica subsp. enterica serovar Typhi), A0A0H3
T1 chain: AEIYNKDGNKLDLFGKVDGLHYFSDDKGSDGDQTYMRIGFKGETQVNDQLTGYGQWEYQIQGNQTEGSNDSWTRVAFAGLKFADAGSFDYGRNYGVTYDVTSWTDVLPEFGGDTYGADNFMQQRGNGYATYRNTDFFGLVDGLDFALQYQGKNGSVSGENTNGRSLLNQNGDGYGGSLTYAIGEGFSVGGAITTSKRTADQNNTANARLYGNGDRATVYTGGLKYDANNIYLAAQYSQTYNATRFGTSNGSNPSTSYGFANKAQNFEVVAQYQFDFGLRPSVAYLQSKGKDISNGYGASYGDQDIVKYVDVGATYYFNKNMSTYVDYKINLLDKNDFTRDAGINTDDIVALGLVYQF

T2: OmpF porin purified from Salmonella typhi (Salmonella enterica subsp. enterica serovar Typhi), Q56113
T2 chain: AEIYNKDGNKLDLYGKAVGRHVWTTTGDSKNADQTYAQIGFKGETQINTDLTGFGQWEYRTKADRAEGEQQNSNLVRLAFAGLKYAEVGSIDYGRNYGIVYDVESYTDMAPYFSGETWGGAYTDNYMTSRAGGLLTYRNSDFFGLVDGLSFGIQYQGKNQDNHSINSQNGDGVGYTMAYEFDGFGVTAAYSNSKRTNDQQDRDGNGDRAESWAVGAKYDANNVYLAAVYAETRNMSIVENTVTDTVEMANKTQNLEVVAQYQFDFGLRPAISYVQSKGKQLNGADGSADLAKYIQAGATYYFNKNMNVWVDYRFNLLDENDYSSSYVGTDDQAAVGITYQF


Experiments:
[1] = target: T1, OmpC porin purified from Salmonella …; assay: phage display panning on OmpC, frequency of occurrence among sequenced binders
[2] = target: T2, OmpF porin purified from Salmonella …; assay: phage display panning on OmpF, frequency of occurrence among sequenced binders

Frequency (fraction of sequenced phage) [1] | Frequency (fraction of sequenced phage) [2] | Binder
0.125 | – | SLSLIQT (modifications not checked) [affinity peptide SLSLIQT]
– | 0.6 | FHENWPS (modifications not checked) [affinity peptide FHENWPS]
0.75 | – | EAKGLIR (modifications not checked) [affinity peptide EAKGLIR]
0.125 | – | TATYLLD (modifications not checked) [affinity peptide TATYLLD]
– | 0.4 | FHEFWPT (modifications not checked) [affinity peptide FHEFWPT]
